PMC9482650, “Quantitative fragmentomics allow affinity mapping of interactomes” (Nature Communications, 2022)

Target: T1, SNTB2, Q13425
T1 sequence (Q13425 110-208, limits assumed, looked up): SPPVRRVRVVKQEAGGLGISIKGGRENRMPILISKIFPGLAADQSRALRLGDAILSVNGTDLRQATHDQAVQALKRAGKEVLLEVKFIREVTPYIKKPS
Assay: holdup assay
Conditions: plain residues with an end cap or a label only (N-terminal biotin on a linker: (peg)3)

YDEPTTTTSVPL [SARS-Cov2-3a, P0DTC3]
pKd: below the threshold
